Several values for one entry are separate records, joined by “and”; a condition that tells them apart may be missing. Equal values may be shown once.
Columns and labels:
[1] = target: P66 with a c-Myc epitope tag inserted C-terminally to D303 (Borrelia burgdorferi)
[2] = target: P66 with a c-Myc epitope tag inserted C-terminally to D303 (Borrelia burgdorferi); assay: native gel or EMSA; Blue native PAGE (4-16% Bis-Tris) of membrane B-fractions solubilised in 1.25% digitonin; immunoblot with anti-P66 or anti-c-Myc
[3] = target: P66 with a c-Myc epitope tag inserted C-terminally to E33 (Borrelia burgdorferi)
[4] = target: P66 with a c-Myc epitope tag inserted C-terminally to E33 (Borrelia burgdorferi); assay: native gel or EMSA; Blue native PAGE (4-16% Bis-Tris) of membrane B-fractions solubilised in 1.25% digitonin; immunoblot with anti-P66 or anti-c-Myc

**Q.** What does the source list for “P66 with a c-Myc epitope tag inserted C-terminally to D303 (natural protein)”?
**A.** single-channel conductance of the outer membrane fraction in black lipid bilayers (1 M KCl, 20 mV) [1]: < 4 nS; stoichiometry N [2]: 3 and 5

**Q.** With “P66 with a c-Myc epitope tag inserted C-terminally to E33 (natural protein)” as the substance, how does the single-channel conductance of the outer membrane fraction in black lipid bilayers (1 M KCl, 20 mV) [3] read?
**A.** < 4 nS

**Q.** What about the stoichiometry N [4] of the same substance?
**A.** 3
